One may read the Kd as the free concentration of one partner at which half of the binding sites on the other are occupied at equilibrium, for simple one-to-one binding.

For 14 sequences, Kd results are on record in the Immune Epitope Database (IEDB).

What all share (assay): IEDB peptide-MHC binding, purified MHC/competitive/radioactivity; filed as Kd, often an IC50 or EC50 that approximates it; ≥ and ≤ were set here for values at or beyond the usual limits of such assays
The target of experiment [1] is HLA-B*45:01.
Experiment [2] addresses HLA-B*44:03.
The target in experiment [3] is HLA-B*18:01.
The target of experiment [4] is HLA-B*40:02.
Experiment [5] deals with HLA-B*44:02.
In experiment [6] the target is HLA-B*40:01.
Experiment [7] has as its target HLA-A*02:06.
Experiment [8] concerns the target HLA-A*68:02.
For experiment [9], the target named is HLA-A*02:01.
In experiment [10] the target is HLA-B*07:02. The following applies: source organism: SARS coronavirus Tor2.
The target of experiment [11] is HLA-B*35:01. As to conditions: source organism: SARS coronavirus Tor2.
The target in experiment [12] is HLA-B*51:01. The following applies: source organism: SARS coronavirus Tor2.
Experiment [13] concerns the target HLA-B*54:01. The following applies: source organism: SARS coronavirus Tor2.
The target in experiment [14] is HLA-B*53:01. The following applies: source organism: SARS coronavirus Tor2.
Experiment [15] deals with HLA-A*02:03. As to conditions: source organism: Trypanosoma cruzi.
Experiment [16] concerns the target HLA-A*02:02. As to conditions: source organism: Trypanosoma cruzi.
The mark [17] stands for this setting: source organism: SARS coronavirus Tor2.
The mark [18] stands for this setting: source organism: Mammarenavirus mopeiaense.
Setting [19] is: source organism: Mammarenavirus brazilense.
The mark [20] stands for this setting: source organism: Mammarenavirus choriomeningitidis.
[21] abbreviates: source organism: Trypanosoma cruzi.

As for SEYDYVIFT, the equilibrium dissociation constant (Kd) in experiment [1] (setting [17]) was determined as 11.4 nM; in experiment [2] (setting [17]) it was 25.1 nM; in experiment [3] (setting [17]), 3270 nM; in [4] (setting [17]) it was 34 nM; in experiment [5] (setting [17]) it was 125 nM; in experiment [6] (setting [17]) it was 998 nM.

Take PELLNNQFGT: the Kd in experiment [1] (setting [18]) was not below 70000 nM; in [2] (setting [18]), not below 69700 nM; in [3] (setting [18]), 16200 nM; in experiment [4] (setting [18]), not below 27200 nM; in experiment [5] (setting [18]), not below 70200 nM; in experiment [6] (setting [18]), not below 69500 nM.

Turning to REVKTIKVF, the Kd in experiment [1] (setting [17]) stood at 6750 nM; in [2] (setting [17]), 87.8 nM; in experiment [3] (setting [17]), 4000 nM; in [4] (setting [17]), 54.3 nM; in experiment [5] (setting [17]) it was 103 nM; in experiment [6] (setting [17]), 219 nM.

In the case of SDHLLSEML, the Kd is not below 77700 nM in experiment [1] (setting [19]); not below 78100 nM in experiment [2] (setting [19]); not below 77500 nM in experiment [3] (setting [19]); 2260 nM in experiment [4] (setting [19]); not below 26900 nM in experiment [5] (setting [19]); 5290 nM in experiment [6] (setting [19]).

On to NEYRQYLDAY, for which the dissociation constant Kd in experiment [1] (setting [17]) was 4930 nM; in experiment [2] (setting [17]), 83.2 nM; in experiment [3] (setting [17]), 253 nM; in [4] (setting [17]), 632 nM; in [5] (setting [17]) it was 1990 nM; in experiment [6] (setting [17]) it was not below 21900 nM.

Consider AEQLMSLAA, for which the dissociation constant Kd amounted to 1.7 nM in [1] (setting [20]); 4480 nM in experiment [2] (setting [20]); 3640 nM in [3] (setting [20]); 3.31 nM in [4] (setting [20]); 214 nM in experiment [5] (setting [20]); 1850 nM in [6] (setting [20]).

Turning to EEAALCTFLL, the Kd in experiment [1] (setting [17]) was determined as 89 nM; in experiment [2] (setting [17]), 13.1 nM; in experiment [3] (setting [17]), 163 nM; in experiment [4] (setting [17]), 17.7 nM; in experiment [5] (setting [17]) it was 21.6 nM; in experiment [6] (setting [17]) it was 43.7 nM.

For AEVQIDRLI, the dissociation constant (Kd) was 985 nM in [1] (setting [17]); 94 nM in experiment [2] (setting [17]); not below 77500 nM in [3] (setting [17]); 92.4 nM in experiment [4] (setting [17]); 90.1 nM in experiment [5] (setting [17]); 10900 nM in experiment [6] (setting [17]).

For TLENERGEL, the equilibrium dissociation constant (Kd) was not below 45600 nM in experiment [7] (source organism: Homo sapiens), not below 21500 nM in experiment [8] (source organism: Homo sapiens) and not below 28600 nM in [9] (source organism: Homo sapiens).

For the sequence KPPISFPLCA, the dissociation constant Kd in experiment [10] is 17200 nM; in experiment [11] it was not below 42500 nM; in experiment [12], 9520 nM; in experiment [13] it was 3870 nM; in experiment [14], not below 31500 nM.

For LLGLWGLAAL, the equilibrium dissociation constant (Kd) in [7] (setting [21]) came to 144 nM; in [8] (setting [21]), 5820 nM; in experiment [15], 9.38 nM; in experiment [9] (setting [21]) it was 50.7 nM; in experiment [16], 4 nM.

In the case of REGLLNYSM, the Kd in experiment [1] (setting [20]) amounted to 2460 nM; in [2] (setting [20]), 1220 nM; in experiment [3] (setting [20]), 148 nM; in [4] (setting [20]), 17.7 nM; in [5] (setting [20]) it was 1180 nM; in [6] (setting [20]), 1190 nM.

Take YDYYRYNLPT: the Kd in experiment [1] (setting [17]) is 15100 nM; in [2] (setting [17]), not below 20900 nM; in experiment [3] (setting [17]) it was not below 70500 nM; in experiment [4] (setting [17]) it was not below 36500 nM; in [5] (setting [17]) it was not below 24800 nM; in experiment [6] (setting [17]) it was not below 69600 nM.

For the sequence RERVNINIVG, the dissociation constant Kd in experiment [1] (setting [17]) is 1630 nM; in [2] (setting [17]) it was 6740 nM; in experiment [3] (setting [17]), not below 70500 nM; in [4] (setting [17]) it was 143 nM; in experiment [5] (setting [17]), 7900 nM; in experiment [6] (setting [17]), 4910 nM.
